The results in this text go back to patent publication US20260250362A1 (published 2026).

Like-named read-outs stand apart in the source and are kept apart here. Where only a bound is given, the exact number is not on record here.

As usually defined, the Kd is the concentration at which binding is half-saturated. The EC50 is the concentration at which the effect is half-maximal.

For test [1], the target named is PUUV GnH/Gc. Kind of test: BLI.
For test [2], the target named is T1, recombinant ANDV Gn^H/Gc heterodimer (Andes virus (ANDV)). Kind of test: BLI. (In general: In BLI a coated tip is dipped into the sample, and binding shifts an interference pattern.)
Test [3] deals with PUUV GnH/Gc. Kind of test: BLI. This is another data set of the same source.
Test [4] has as its target T1, recombinant ANDV Gn^H/Gc heterodimer. Kind of test: BLI. This is another data set of the same source.
The next test has as its target PUUV (Puumala virus (PUUV)). Kind of test: ELISA.

B1: ADI-42898 Fab (Fab, V domains shown)
VH: QVQLVESGGGVVQPGRSLRLSCAASGFTFSSYAMHWVRQAPGKGLEWVAVTWFDVSKKDYADSVKGRFTISRDNSKNTLYLQMNSLRAEDTAVYYCARNLIRYSGSYFPVHGMDVWGQGTTVTVSS
VL: DIVMTQSPLSLPVTPGEPASISCRSSQSLLHTYGYNSLDWYLQRPGQSPQLLISLGSYRASGVPDRFSGSGSGTDFTLKISRVEAEDVGVYYCMQALHPFTFGGGTKVEIK
Consider B1, for which the Kd with PUUV GnH/Gc [1] is 1.9 nM; in test [2], 19600 nM.

B2: ADI-42898 IgG (antibody, V domains shown)
VH: QVQLVESGGGVVQPGRSLRLSCAASGFTFSSYAMHWVRQAPGKGLEWVAVTWFDVSKKDYADSVKGRFTISRDNSKNTLYLQMNSLRAEDTAVYYCARNLIRYSGSYFPVHGMDVWGQGTTVTVSS
VL: DIVMTQSPLSLPVTPGEPASISCRSSQSLLHTYGYNSLDWYLQRPGQSPQLLISLGSYRASGVPDRFSGSGSGTDFTLKISRVEAEDVGVYYCMQALHPFTFGGGTKVEIK
For B2, the affinity in the test with PUUV GnH/Gc [3], expressed as Kd, was 1.5 nM.

B3: ADI-42898 (antibody, V domains shown)
VH: QVQLVESGGGVVQPGRSLRLSCAASGFTFSSYAMHWVRQAPGKGLEWVAVTWFDVSKKDYADSVKGRFTISRDNSKNTLYLQMNSLRAEDTAVYYCARNLIRYSGSYFPVHGMDVWGQGTTVTVSS
VL: DIVMTQSPLSLPVTPGEPASISCRSSQSLLHTYGYNSLDWYLQRPGQSPQLLISLGSYRASGVPDRFSGSGSGTDFTLKISRVEAEDVGVYYCMQALHPFTFGGGTKVEIK
Turning to B3, the Kd in test [4] was determined as 2.8 nM.

B4: IgG (antibody, V domains shown)
VH: QVQLVESGGGVVQPGRSLRLSCAASGFTFSSYAMHWVRQAPGKGLEWVAVTWFDVSKKDYADSVKGRFTISRDNSKNTLYLQMNSLRAEDTAVYYCARNLIRYSGSYFPVHGMDVWGQGTTVTVSS
VL: DIVMTQSPLSLPVTPGEPASISCRSSQSLLHTYGYNSLDWYLQRPGQSPQLLISLGSYRASGVPDRFSGSGSGTDFTLKISRVEAEDVGVYYCMQALHPFTFGGGTKVEIK
B4 showed an EC50 with PUUV of less than 0.1 nM.
